Positions count from the first letter of the chain named.
What was measured:
[1] = target: T1, Dda 1993 354Q 354Q (Enterobacteria phage T4) (UniProt P32270); conditions: nanopore translocation, FLO-MIN112; background mutations not given
T1 sequence: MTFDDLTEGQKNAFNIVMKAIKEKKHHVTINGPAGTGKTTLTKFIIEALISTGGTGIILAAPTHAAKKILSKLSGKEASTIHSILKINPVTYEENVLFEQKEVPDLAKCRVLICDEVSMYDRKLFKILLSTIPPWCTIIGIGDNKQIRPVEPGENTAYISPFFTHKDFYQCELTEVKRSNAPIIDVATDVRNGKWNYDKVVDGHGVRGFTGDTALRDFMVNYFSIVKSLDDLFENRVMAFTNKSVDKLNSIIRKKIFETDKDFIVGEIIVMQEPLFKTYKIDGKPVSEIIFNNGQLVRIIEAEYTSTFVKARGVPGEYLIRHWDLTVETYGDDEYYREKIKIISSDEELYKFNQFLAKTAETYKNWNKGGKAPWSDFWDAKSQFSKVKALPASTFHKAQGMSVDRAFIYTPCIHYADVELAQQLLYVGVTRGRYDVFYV

[2] = target: T2, Dda 1993 K358A K358A (Enterobacteria phage T4) (UniProt P32270); conditions: nanopore translocation, FLO-MIN112; background mutations not given
T2 sequence: T1 sequence with Q354L, K358A

[3] = target: T3, Dda 1993 351I 351I (Enterobacteria phage T4) (UniProt P32270); conditions: nanopore translocation, FLO-MIN112; background mutations not given
T3 sequence: T1 sequence with K351I, Q354L

[4] = target: T4, Dda 1993 361Q 361Q (Enterobacteria phage T4) (UniProt P32270); conditions: nanopore translocation, FLO-MIN112; background mutations not given
T4 sequence: T1 sequence with Q354L, E361Q

[5] = target: T5, Dda 1993 C114V C114V (Enterobacteria phage T4) (UniProt P32270); conditions: nanopore translocation; background mutations not given
T5 sequence: T1 sequence with C114V, Q354L

[6] = target: T6, Dda 1993 C114I C114I (Enterobacteria phage T4) (UniProt P32270); conditions: nanopore translocation; background mutations not given
T6 sequence: T1 sequence with C114I, Q354L

barcoded 3.6 kb DNA analyte ligated to sequencing Y adaptor
activity (bps speed delta vs control) [1]: 0.09 | activity (bps speed delta vs control) [2]: -0.99 | activity (bps speed delta vs control) [3]: -9.76 | activity (bps speed delta vs control) [4]: 13.8 | activity (bps speed delta vs control) [5]: 26 | activity (bps speed delta vs control) [6]: 93.7
